In patent US20250163168A1, “NOVEL ANTIBODIES AND ANTIBODY CONJUGATES FOR THE TREATMENT OF METABOLIC DISORDERS” (PFIZER INC., priority 2023, published 2025):

Target: biotinylated human FcRn (hFcRn) (human) (UniProt P55899)
Experiment: human FcRn affinity column, pH gradient 5.5 to 8.8; retention time relative to the assay control mAb-A (N = 2)

hFcRN Relative Retention Time | Substance
0.8 | negative control (polyreactivity assays) (antibody)
4.15 | positive control (polyreactivity assays) (antibody)
